Consider 1 molecule from US20130217122A1, “Expansion of Interferon-Gamma-Producing T-Cells Using Glypican-3 Peptide Library” (The Trustees of the University of Pennsylvania, priority 2012, published 2013).

The target of this assay is T1, human HLA-A2.1 on T2 cells (human).
T1 construct: whole, on cells; Empty or peptide-receptive HLA-A2.1 on TAP-deficient T2 cells; also called HLA-A*0201; class I MHC molecules
The experiment in a line: T2 binding assay (HLA-A2 on T2 cells, flow cytometry).

B1: Glypican-3 136-145 (SLTPQAFEFV) (peptide)
peptide: SLTPQAFEFV
notes: Synthetic 10 mer of human glypican-3 (NP-004475); also called GPC3 136-145; GPC3136-145
For the molecule B1, the binding result is given as “binds”.
